# Assay results reported in patent US7553821B2, “Methods for selectively modulating survivin apoptosis pathways” (Yale University, priority 2000, dated 2009).
# Entries after “also recorded” stand apart in the source; their conditions may differ.
# Columns and labels:
# p34^cdc2 = biological target: T1, p34^cdc2 (Homo sapiens, UniProt P06493); assay: Co-immunoprecipitation of survivin and p34cdc2 from HeLa cells; format: binding; conditions: asynchronously growing transfected HeLa cells
# T1 construct: immunoprecipitated with an antibody to HA, and immunoblotted with antibodies to p34^cdc2 or HA; endogenous in cells; host or cells: HeLa
# T1 sequence (P06493 whole entry): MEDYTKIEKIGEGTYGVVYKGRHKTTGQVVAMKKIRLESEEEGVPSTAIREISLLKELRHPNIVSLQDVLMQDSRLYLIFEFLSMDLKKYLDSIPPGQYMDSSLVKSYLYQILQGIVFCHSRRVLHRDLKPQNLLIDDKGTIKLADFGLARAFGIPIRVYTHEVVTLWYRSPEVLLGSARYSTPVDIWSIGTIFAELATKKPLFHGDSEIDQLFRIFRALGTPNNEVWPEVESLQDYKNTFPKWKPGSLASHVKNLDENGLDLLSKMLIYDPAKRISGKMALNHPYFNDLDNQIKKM
# Description: The experimental procedures are the same as in A, except that asynchronously growing HeLa cells were transfected with HA-survivin or HA-survivin(T34A), immunoprecipitated with an antibody to HA, and immunoblotted with antibodies to p34^cdc2 or HA. W, whole HeLa cell extract.
# (§1) Transfection experiments. For transient transfection, HeLa cells in C-6 tissue culture plates (Costar, Cambridge, Mass.) at ˜60-70% confluency, were incubated in 1 ml of serum-free OptiMEM medium (Life Technologies, Gaithersburg, Md.) for 20 min, and transfected with 2.5 μg of the various plasmid cDNAs plus 9 μl Lipofectamine (Life Technologies). After a 5 h incubation at 37° C., the mixture was aspirated and substituted with complete growth medium for 48-72 h. To generate stable YUSAC-2 transfectants, a survivin(T34A) cDNA was inserted into the HindIII-SpeI sites of the pTet-splice vector (Dr. D. Schatz, Yale University School of Medicine), downstream of the regulatory sequences of the Tet-resistance operon (TetO). YUSAC-2 cells were transfected with 0.8 μg pTet-T34A, 0.8 μg of the transactivation/selection plasmid ptTA-Neo and 5 μl Lipofectamine in 1 ml of OptiMem. […] Gated GFP-expressing cells were analyzed for DNA content by flow cytometry on a FACSort (Becton Dickinson, San Jose, Calif.) using a Cell Quest software. […]
# p34^cdc2-cyclin B1 = biological target: T2, p34^cdc2-cyclin B1 (Homo sapiens, UniProt P06493); assay: In vitro kinase assay with p34cdc2-cyclin B1; format: biochemical; conditions: recombinant protein as substrate, 32P-ATP, 30 min at 30° C., autoradiography
# T2 construct: host or cells: baculovirus expression system
# T2 sequence (P06493 whole entry): as above
# T2 sequence (P14635 whole entry partner): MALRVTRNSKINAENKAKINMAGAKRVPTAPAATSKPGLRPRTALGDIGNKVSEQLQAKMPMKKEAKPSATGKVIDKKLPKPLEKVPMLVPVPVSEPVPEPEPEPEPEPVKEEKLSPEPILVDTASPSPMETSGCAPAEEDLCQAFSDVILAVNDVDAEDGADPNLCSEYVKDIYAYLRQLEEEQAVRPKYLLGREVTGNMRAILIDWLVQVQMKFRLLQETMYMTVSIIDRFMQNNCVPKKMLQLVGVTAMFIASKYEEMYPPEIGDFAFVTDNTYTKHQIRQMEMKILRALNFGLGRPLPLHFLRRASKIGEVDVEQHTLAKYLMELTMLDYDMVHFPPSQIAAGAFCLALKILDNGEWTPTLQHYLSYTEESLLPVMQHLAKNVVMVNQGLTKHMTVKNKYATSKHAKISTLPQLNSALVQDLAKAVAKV
# Description: (§2) FIG. 1B. In vitro kinase assay. Wild type (WT) survivin, survivin(T34A) (T34A), or control (H1) were incubated with baculovirus-expressed p34^cdc2-cyclin B1 or cdk2-cyclin E in kinase buffer plus 10 μCi γ-^32P-ATP for 30 min at 30° C. Samples were separated by SDS gel electrophoresis and radioactive bands were visualized by autoradiography. Equal protein loading was confirmed by Coomassie blue staining of the gel.
# as §1, with “(TetO).” for “(TetO). YUSAC-2 cells were transfected with 0.8 μg pTet-T34A, 0.8 μg of the transactivation/selection plasmid ptTA-Neo and 5 μl Lipofectamine in 1 ml of OptiMem.”
# F5.C4 tumors = assay: Effect on established F5.C4 tumors in mice; format: in vivo
# Description: Error bars indicate standard deviation. Also shown are 5 representative growth curves from 15 animals in which tet was withheld (day 0) upon tumor formation (no symbols).
# Next, the effect of survivin Thr^34→Ala on established tumors was assessed. Fifteen mice were injected with F5.C4 cells and tet was provided to permit tumor formation. Once tumors became apparent (20-50 mm^3), tet was withheld from the drinking water and tumors were monitored for 5 weeks. […] Rather, a spectrum of growth curves with some tumors failing to grow at all after tet was withdrawn was observed (FIG. 10A). […] In the two small F5.C4 tumors that formed in the absence of tet (Table I), a similar pattern of apoptotic cell death was seen (not shown).
# HeLa cells = assay: Mitotic spindle immunofluorescence (tubulin) in transfected HeLa cells; format: cell-based; conditions: tubulin labeling
# Description: HeLa cells transfected with wild type survivin (WT) or survivin(T34A) (T34A), were fixed in microtubule-stabilizing buffer (Li et al., 1998), and labeled with mAb 20C6 to […] -tubulin followed by FITC-conjugated goat anti-mouse IgG. Images were analyzed by confocal microscopy as described in FIG. 2C.
# as §1
# Cdk2-cyclin E = biological target: T3, Cdk2-cyclin E (Homo sapiens, UniProt P24941); assay: In vitro kinase assay with Cdk2-cyclin E; format: biochemical; conditions: recombinant protein as substrate, control experiment, autoradiography
# T3 construct: host or cells: baculovirus expression system
# Description: as §2
# as §1, with “(TetO).” for “(TetO). YUSAC-2 cells were transfected with 0.8 μg pTet-T34A, 0.8 μg of the transactivation/selection plasmid ptTA-Neo and 5 μl Lipofectamine in 1 ml of OptiMem.”
substance,measurement,setting,value
"survivin(T34A): dominant-negative, non-phosphorylatable survivin mutant with Thr34→Ala substitution, expressed from transfected cDNA (also HA- or GFP-tagged)",p34^cdc2 in HA immunoprecipitates by Western blotting,p34^cdc2,contained a prominent p34^cdc2 band
same,phosphorylation by p34^cdc2-cyclin B1,p34^cdc2-cyclin B1,abolished phosphorylation
same,growth of established tumors after tet withdrawal,"F5.C4 tumors; F5.C4 tumors 20-50 mm^3 at withdrawal, monitored for 5 weeks",None of the tumors grew at a rate comparable to F5.C4 tumors in animals maintained on tet
same,histologic analysis of tumors after transgene induction,"F5.C4 tumors; F5.C4 tumors, tet withdrawn, listed as survivin Thr^34→Ala",massive areas of necrosis and prominent cellular apoptosis by TUNEL; also recorded: lack of normal mitotic figures and the presence of aberrant mitoses
same,mitotic spindle morphology,HeLa cells,profound dysregulation of mitotic transitions
same,phosphorylation by Cdk2-cyclin E,Cdk2-cyclin E,did not phosphorylate
